Measured values: article PMC9482650, “Quantitative fragmentomics allow affinity mapping of interactomes” (Nature Communications, 2022)
Changes are numbered by the printed parent chain.

molecular target: T1, LIN7C, Q9NUP9; test: holdup assay; parameters: key: below the threshold = too weak to quantify, mostly under pKd 3.1 to 4; details: plain residues with an end cap or a label only (N-terminal biotin on a linker: ado-ado)
T1 sequence (Q9NUP9 88-185, limits assumed, looked up): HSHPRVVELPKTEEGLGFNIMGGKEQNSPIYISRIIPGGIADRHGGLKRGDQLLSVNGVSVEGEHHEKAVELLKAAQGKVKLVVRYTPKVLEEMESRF

Binder	pKd
ETQVTAETVI [TMEM225B, P0DP42]	4.07

molecular target: T2, MPP2, Q14168; test: holdup assay; parameters: key: below the threshold = too weak to quantify, mostly under pKd 3.1 to 4; details: plain residues with an end cap or a label only (N-terminal biotin on a linker: ado-ado)
T2 sequence (Q14168 180-250, limits assumed, looked up): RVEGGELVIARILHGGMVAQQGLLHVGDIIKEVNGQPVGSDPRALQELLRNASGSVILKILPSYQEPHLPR

Binder	pKd
ETQVTAETVI [TMEM225B, P0DP42]	below the threshold

molecular target: T3, PDZD2_2, O15018; test: holdup assay; parameters: key: below the threshold = too weak to quantify, mostly under pKd 3.1 to 4; details: plain residues with an end cap or a label only (N-terminal biotin on a linker: ado-ado)
T3 sequence (O15018 329-429, limits assumed, looked up): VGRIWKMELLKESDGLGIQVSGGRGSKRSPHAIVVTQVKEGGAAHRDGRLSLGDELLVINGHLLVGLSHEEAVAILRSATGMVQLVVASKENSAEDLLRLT

Binder	pKd
ETQVTAETVI [TMEM225B, P0DP42]	3.92

molecular target: T4, LIN7B, Q9HAP6; test: holdup assay; parameters: key: below the threshold = too weak to quantify, mostly under pKd 3.1 to 4; details: plain residues with an end cap or a label only (N-terminal biotin on a linker: ado-ado)
T4 sequence (Q9HAP6 88-185, limits assumed, looked up): T1 sequence (Q9NUP9 88-185, limits assumed, looked up) with S2A, E13D, I35V, I40V, H65Q, K79S, K89R, S96A

Binder	pKd
ETQVTAETVI [TMEM225B, P0DP42]	below the threshold

molecular target: Inadl_1, Q8NI35; test: holdup assay; parameters: key: below the threshold = too weak to quantify, mostly under pKd 3.1 to 4; details: plain residues with an end cap or a label only (N-terminal biotin on a linker: ado-ado)
Sequence (Q8NI35 113-229): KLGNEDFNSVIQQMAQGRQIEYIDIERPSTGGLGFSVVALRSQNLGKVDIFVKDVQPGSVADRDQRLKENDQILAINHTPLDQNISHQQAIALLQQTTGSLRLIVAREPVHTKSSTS

Binder	pKd
ETQVTAETVI [TMEM225B, P0DP42]	below the threshold

molecular target: T5, FRMPD1, Q5SYB0; test: holdup assay; parameters: key: below the threshold = too weak to quantify, mostly under pKd 3.1 to 4; details: plain residues with an end cap or a label only (N-terminal biotin on a linker: ado-ado)
T5 sequence (Q5SYB0 52-145, limits assumed, looked up): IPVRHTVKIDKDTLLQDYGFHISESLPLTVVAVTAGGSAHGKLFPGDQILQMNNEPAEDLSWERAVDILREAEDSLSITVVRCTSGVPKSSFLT

Binder	pKd
ETQVTAETVI [TMEM225B, P0DP42]	below the threshold

molecular target: GRID2IP_1, A4D2P6; test: holdup assay; parameters: key: below the threshold = too weak to quantify, mostly under pKd 3.1 to 4; details: plain residues with an end cap or a label only (N-terminal biotin on a linker: ado-ado)
Sequence (A4D2P6 1-87): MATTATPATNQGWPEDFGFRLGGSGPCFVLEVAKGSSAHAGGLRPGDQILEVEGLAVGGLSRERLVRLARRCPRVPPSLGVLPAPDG

Binder	pKd
ETQVTAETVI [TMEM225B, P0DP42]	below the threshold

molecular target: T6, HTRA4, P83105; test: holdup assay; parameters: key: below the threshold = too weak to quantify, mostly under pKd 3.1 to 4; details: plain residues with an end cap or a label only (N-terminal biotin on a linker: ado-ado)
T6 sequence (P83105 378-476, limits assumed, looked up): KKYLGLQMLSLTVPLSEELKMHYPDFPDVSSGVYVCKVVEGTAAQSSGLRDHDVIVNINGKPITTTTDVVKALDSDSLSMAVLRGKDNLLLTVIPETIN

Binder	pKd
ETQVTAETVI [TMEM225B, P0DP42]	below the threshold

molecular target: MAGI2_5, Q86UL8; test: holdup assay; parameters: key: below the threshold = too weak to quantify, mostly under pKd 3.1 to 4; details: plain residues with an end cap or a label only (N-terminal biotin on a linker: ado-ado)
Sequence (Q86UL8 915-1017): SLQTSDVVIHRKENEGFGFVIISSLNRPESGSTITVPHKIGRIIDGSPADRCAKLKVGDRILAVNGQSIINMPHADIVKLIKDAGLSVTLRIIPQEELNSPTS

Binder	pKd
ETQVTAETVI [TMEM225B, P0DP42]	below the threshold

molecular target: DLG4_1, P78352; test: holdup assay; parameters: key: below the threshold = too weak to quantify, mostly under pKd 3.1 to 4; details: plain residues with an end cap or a label only (N-terminal biotin on a linker: ado-ado)
Sequence (P78352 62-152): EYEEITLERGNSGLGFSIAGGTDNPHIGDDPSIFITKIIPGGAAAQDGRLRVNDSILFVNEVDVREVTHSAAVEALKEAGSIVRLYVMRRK

Binder	pKd
ETQVTAETVI [TMEM225B, P0DP42]	3.6

molecular target: Inadl_9, Q8NI35; test: holdup assay; parameters: key: below the threshold = too weak to quantify, mostly under pKd 3.1 to 4; details: plain residues with an end cap or a label only (N-terminal biotin on a linker: ado-ado)
Sequence (Q8NI35 1530-1615): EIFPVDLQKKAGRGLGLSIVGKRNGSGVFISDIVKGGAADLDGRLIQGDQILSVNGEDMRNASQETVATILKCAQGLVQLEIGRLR

Binder	pKd
ETQVTAETVI [TMEM225B, P0DP42]	below the threshold

molecular target: T7, DVL3, Q92997; test: holdup assay; parameters: key: below the threshold = too weak to quantify, mostly under pKd 3.1 to 4; details: plain residues with an end cap or a label only (N-terminal biotin on a linker: ado-ado)
T7 sequence (Q92997 244-331, limits assumed, looked up): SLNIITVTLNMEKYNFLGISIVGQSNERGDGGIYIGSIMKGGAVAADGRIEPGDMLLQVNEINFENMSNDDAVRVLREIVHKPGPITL

Binder	pKd
ETQVTAETVI [TMEM225B, P0DP42]	below the threshold

molecular target: Inadl_8, Q8NI35; test: holdup assay; parameters: key: below the threshold = too weak to quantify, mostly under pKd 3.1 to 4; details: plain residues with an end cap or a label only (N-terminal biotin on a linker: ado-ado)
Sequence (Q8NI35 1425-1530): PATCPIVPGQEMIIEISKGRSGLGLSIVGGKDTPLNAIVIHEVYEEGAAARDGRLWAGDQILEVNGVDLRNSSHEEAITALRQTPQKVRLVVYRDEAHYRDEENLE

Binder	pKd
ETQVTAETVI [TMEM225B, P0DP42]	below the threshold

molecular target: ARHGEF12, Q9NZN5-2; test: holdup assay; parameters: key: below the threshold = too weak to quantify, mostly under pKd 3.1 to 4; details: plain residues with an end cap or a label only (N-terminal biotin on a linker: ado-ado)
Sequence (Q9NZN5 other isoform, or with tags, fused parts or gaps): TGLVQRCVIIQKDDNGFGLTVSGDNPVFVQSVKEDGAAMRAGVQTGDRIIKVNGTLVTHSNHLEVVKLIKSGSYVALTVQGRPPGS

Binder	pKd
ETQVTAETVI [TMEM225B, P0DP42]	3.84

molecular target: FRMPD2_1, Q68DX3; test: holdup assay; parameters: key: below the threshold = too weak to quantify, mostly under pKd 3.1 to 4; details: plain residues with an end cap or a label only (N-terminal biotin on a linker: ado-ado)
Sequence (Q68DX3 770-861): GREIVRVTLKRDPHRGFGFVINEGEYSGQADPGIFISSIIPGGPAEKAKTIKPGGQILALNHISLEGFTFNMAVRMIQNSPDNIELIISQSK

Binder	pKd
ETQVTAETVI [TMEM225B, P0DP42]	below the threshold

molecular target: NHERF4_1, Q86UT5-2; test: holdup assay; parameters: key: below the threshold = too weak to quantify, mostly under pKd 3.1 to 4; details: plain residues with an end cap or a label only (N-terminal biotin on a linker: ado-ado)
Sequence (Q86UT5 other isoform, or with tags, fused parts or gaps): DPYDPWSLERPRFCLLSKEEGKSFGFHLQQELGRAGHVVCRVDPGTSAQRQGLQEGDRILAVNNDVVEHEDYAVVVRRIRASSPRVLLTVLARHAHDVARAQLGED

Binder	pKd
ETQVTAETVI [TMEM225B, P0DP42]	below the threshold

molecular target: Inadl_6, Q8NI35; test: holdup assay; parameters: key: below the threshold = too weak to quantify, mostly under pKd 3.1 to 4; details: plain residues with an end cap or a label only (N-terminal biotin on a linker: ado-ado)
Sequence (Q8NI35 1058-1167): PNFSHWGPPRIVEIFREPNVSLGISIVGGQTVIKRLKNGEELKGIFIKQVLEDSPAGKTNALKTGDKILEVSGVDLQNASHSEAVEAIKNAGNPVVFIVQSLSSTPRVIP

Binder	pKd
ETQVTAETVI [TMEM225B, P0DP42]	below the threshold

molecular target: IL16_4, Q14005; test: holdup assay; parameters: key: below the threshold = too weak to quantify, mostly under pKd 3.1 to 4; details: plain residues with an end cap or a label only (N-terminal biotin on a linker: ado-ado)
Sequence (Q14005 1229-1329): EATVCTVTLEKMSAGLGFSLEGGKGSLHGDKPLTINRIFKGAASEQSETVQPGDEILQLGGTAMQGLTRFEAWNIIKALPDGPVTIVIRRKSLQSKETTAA

Binder	pKd
ETQVTAETVI [TMEM225B, P0DP42]	below the threshold

molecular target: T8, PDZD7_3, Q9H5P4; test: holdup assay; parameters: key: below the threshold = too weak to quantify, mostly under pKd 3.1 to 4; details: plain residues with an end cap or a label only (N-terminal biotin on a linker: ado-ado)
T8 sequence (Q9H5P4 857-944, limits assumed, looked up): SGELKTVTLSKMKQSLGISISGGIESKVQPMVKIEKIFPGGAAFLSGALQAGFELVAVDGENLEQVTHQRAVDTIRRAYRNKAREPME

Binder	pKd
ETQVTAETVI [TMEM225B, P0DP42]	5.23

molecular target: Inadl_3, Q8NI35; test: holdup assay; parameters: key: below the threshold = too weak to quantify, mostly under pKd 3.1 to 4; details: plain residues with an end cap or a label only (N-terminal biotin on a linker: ado-ado)
Sequence (Q8NI35 359-469): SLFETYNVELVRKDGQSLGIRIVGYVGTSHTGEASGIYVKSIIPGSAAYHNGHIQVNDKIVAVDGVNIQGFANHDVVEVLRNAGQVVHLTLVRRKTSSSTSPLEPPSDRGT

Binder	pKd
ETQVTAETVI [TMEM225B, P0DP42]	4.26

molecular target: LNX1_3, Q8TBB1; test: holdup assay; parameters: key: below the threshold = too weak to quantify, mostly under pKd 3.1 to 4; details: plain residues with an end cap or a label only (N-terminal biotin on a linker: ado-ado)
Sequence (Q8TBB1 500-596): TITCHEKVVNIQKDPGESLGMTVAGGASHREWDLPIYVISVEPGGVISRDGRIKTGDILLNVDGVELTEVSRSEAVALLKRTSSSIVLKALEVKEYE

Binder	pKd
ETQVTAETVI [TMEM225B, P0DP42]	below the threshold

molecular target: MAST2, Q6P0Q8; test: holdup assay; parameters: key: below the threshold = too weak to quantify, mostly under pKd 3.1 to 4; details: plain residues with an end cap or a label only (N-terminal biotin on a linker: ado-ado)
Sequence (Q6P0Q8 1099-1202): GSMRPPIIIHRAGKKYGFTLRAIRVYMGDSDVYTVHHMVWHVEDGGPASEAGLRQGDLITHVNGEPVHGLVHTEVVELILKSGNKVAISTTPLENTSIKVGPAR

Binder	pKd
ETQVTAETVI [TMEM225B, P0DP42]	5.12

molecular target: T9, APBA3_1, O96018; test: holdup assay; parameters: key: below the threshold = too weak to quantify, mostly under pKd 3.1 to 4; details: plain residues with an end cap or a label only (N-terminal biotin on a linker: ado-ado)
T9 sequence (O96018 389-490, limits assumed, looked up): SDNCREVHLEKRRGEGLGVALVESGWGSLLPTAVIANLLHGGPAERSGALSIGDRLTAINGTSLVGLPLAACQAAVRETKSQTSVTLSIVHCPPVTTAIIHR

Binder	pKd
ETQVTAETVI [TMEM225B, P0DP42]	below the threshold

molecular target: T10, LNX2_3, Q8N448; test: holdup assay; parameters: key: below the threshold = too weak to quantify, mostly under pKd 3.1 to 4; details: plain residues with an end cap or a label only (N-terminal biotin on a linker: ado-ado)
T10 sequence (Q8N448 463-564, limits assumed, looked up): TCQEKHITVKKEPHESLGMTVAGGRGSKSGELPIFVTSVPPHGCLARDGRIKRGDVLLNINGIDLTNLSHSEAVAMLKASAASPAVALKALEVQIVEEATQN

Binder	pKd
ETQVTAETVI [TMEM225B, P0DP42]	below the threshold

molecular target: T11, GRIP1_4, Q9Y3R0; test: holdup assay; parameters: key: below the threshold = too weak to quantify, mostly under pKd 3.1 to 4; details: plain residues with an end cap or a label only (N-terminal biotin on a linker: ado-ado)
T11 sequence (Q9Y3R0 467-571, limits assumed, looked up): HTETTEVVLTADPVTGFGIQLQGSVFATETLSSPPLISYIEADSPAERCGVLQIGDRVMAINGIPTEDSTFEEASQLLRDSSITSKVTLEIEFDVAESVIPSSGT

Binder	pKd
ETQVTAETVI [TMEM225B, P0DP42]	below the threshold

molecular target: NHERF4_4, Q86UT5; test: holdup assay; parameters: key: below the threshold = too weak to quantify, mostly under pKd 3.1 to 4; details: plain residues with an end cap or a label only (N-terminal biotin on a linker: ado-ado)
Sequence (Q86UT5 464-550): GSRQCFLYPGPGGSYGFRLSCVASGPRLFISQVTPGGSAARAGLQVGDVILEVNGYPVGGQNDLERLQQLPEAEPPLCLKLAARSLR

Binder	pKd
ETQVTAETVI [TMEM225B, P0DP42]	below the threshold
